The supplement of paper PMC5998384

How the values were obtained:
HeLa Kyoto [1] = experiment: solubility in G1/S (NP-40 vs SDS abundance) (log2 ratio); higher = more soluble; conditions: cell cycle stage: G1/S
HeLa Kyoto [2] = experiment: solubility change mitosis vs G1/S (difference of NP-40 vs SDS log2 ratios) (log2 ratio difference); higher = more soluble in mitosis
HeLa Kyoto [3] = experiment: thermal stability score vs G1/S (z-score of summed log2 fold changes over temperatures); higher = more thermally stable than in G1/S
[4] = cell cycle stage: early G1 (4.5 h after nocodazole release)
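Wherever solubility change mitosis vs G1/S (difference of NP-40 vs SDS log2 ratios) is given: synchronized HeLa Kyoto cells (double thymidine block for G1/S, nocodazole release for mitosis), protein amounts in NP-40 versus SDS lysates quantified by mass spectrometry, three biological replicates.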
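Wherever solubility in G1/S (NP-40 vs SDS abundance) is given: HeLa Kyoto cells arrested at G1/S by double thymidine block, proteins quantified by TMT10plex mass spectrometry in mild NP-40 versus SDS extracts, three biological replicates.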
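Wherever thermal stability score vs G1/S (z-score of summed log2 fold changes over temperatures) is given: synchronized HeLa Kyoto cells, proteins quantified by TMT10plex mass spectrometry, three biological replicates, mitosis taken 0.5 h after nocodazole release, G1/S directly after double thymidine block.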

CDK17, sequence (chain, as listed by the source): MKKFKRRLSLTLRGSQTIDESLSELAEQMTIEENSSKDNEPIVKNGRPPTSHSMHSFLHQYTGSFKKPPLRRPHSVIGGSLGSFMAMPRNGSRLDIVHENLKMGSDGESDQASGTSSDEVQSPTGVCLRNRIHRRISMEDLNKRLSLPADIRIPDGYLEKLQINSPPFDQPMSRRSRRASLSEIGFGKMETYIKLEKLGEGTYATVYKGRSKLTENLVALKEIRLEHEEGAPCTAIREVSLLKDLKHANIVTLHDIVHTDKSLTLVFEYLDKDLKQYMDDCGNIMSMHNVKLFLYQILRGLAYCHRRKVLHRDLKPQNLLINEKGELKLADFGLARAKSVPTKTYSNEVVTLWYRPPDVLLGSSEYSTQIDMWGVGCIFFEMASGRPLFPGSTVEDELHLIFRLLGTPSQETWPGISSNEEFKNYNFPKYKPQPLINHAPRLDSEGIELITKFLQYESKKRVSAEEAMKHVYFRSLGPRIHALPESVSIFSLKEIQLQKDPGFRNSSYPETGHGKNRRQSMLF
MFSD12, sequence (chain, as listed by the source): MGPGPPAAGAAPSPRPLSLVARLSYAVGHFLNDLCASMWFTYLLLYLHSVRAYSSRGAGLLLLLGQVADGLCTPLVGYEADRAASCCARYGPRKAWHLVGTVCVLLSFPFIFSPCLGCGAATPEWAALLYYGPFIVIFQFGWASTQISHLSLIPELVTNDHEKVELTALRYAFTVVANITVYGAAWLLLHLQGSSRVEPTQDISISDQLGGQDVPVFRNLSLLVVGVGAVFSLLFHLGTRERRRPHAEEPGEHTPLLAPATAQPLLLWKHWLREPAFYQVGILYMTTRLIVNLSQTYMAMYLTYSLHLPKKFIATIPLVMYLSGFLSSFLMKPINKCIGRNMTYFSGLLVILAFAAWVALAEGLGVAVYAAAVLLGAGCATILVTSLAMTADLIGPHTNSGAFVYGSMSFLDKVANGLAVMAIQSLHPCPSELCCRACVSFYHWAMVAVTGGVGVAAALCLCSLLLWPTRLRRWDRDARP

| Substance | solubility in G1/S (log2) (HeLa Kyoto [1]) | solubility change mitosis (log2) (HeLa Kyoto [2]) | thermal stability score (HeLa Kyoto [3]; [4]) | thermal stability score (HeLa Kyoto [3]; cell cycle stage: mitosis) |
| --- | --- | --- | --- | --- |
| CDK17 | -0.187 | 0.0778 | 0.0888 | -0.0845 |
| MSGDTCLCPASGAKPKLSGFKGGGLGNKYVQLNVGGSLYYTTVRALTRHDTMLKAMFSGRMEVLTDKEGWILIDRCGKHFGTILNYLRDDTITLPQNRQEIKELMAEAKYYLIQGLVNMCQSALQDKKDSYQPVCNIPIITSLKEEERLIESSTKPVVKLLYNRSNNKYSYTSNSDDHLLKNIELFDKLSLRFNGRVLFIKDVIGDEICCWSFYGQGRKLAEVCCTSIVYATEKKQTKVEFPEARIYEETLNVLLYETPRVPDNSLLEATSRSRSQASPSEDEETFELRDRVRRIHVKRYSTYDDRQLGHQSTHRD [TNFAIP1] | -1.22 | 0.627 | 1.18e-17 | -0.17 |
| MLLAQINRDSQGMTEFPGGGMEAQHVTLCLTEAVTVADGDNLENMEGVSLQAVTLADGSTAYIQHNSKDAKLIDGQVIQLEDGSAAYVQHVPIPKSTGDSLRLEDGQAVQLEDGTTAFIHHTSKDSYDQSALQAVQLEDGTTAYIHHAVQVPQSDTILAIQADGTVAGLHTGDATIDPDTISALEQYAAKVSIDGSESVAGTGMIGENEQEKKMQIVLQGHATRVTAKSQQSGEKAFRCEYDGCGKLYTTAHHLKVHERSHTGDRPYQCEHAGCGKAFATGYGLKSHVRTHTGEKPYRCSEDNCTKSFKTSGDLQKHIRTHTGERPFKCPFEGCGRSFTTSNIRKVHVRTHTGERPYYCTEPGCGRAFASATNYKNHVRIHTGEKPYVCTVPGCDKRFTEYSSLYKHHVVHTHSKPYNCNHCGKTYKQISTLAMHKRTAHNDTEPIEEEQEAFFEPPPGQGEDVLKGSQITYVTGVEGDDVVSTQVATVTQSGLSQQVTLISQDGTQHVNISQADMQAIGNTITMVTQDGTPITVPAHDAVISSAGTHSVAMVTAEGTEGEQVAIVAQDLAAFHTASSEMGHQQHSHHLVTTETRPLTLVATSNGTQIAVQLGEQPSLEEAIRIASRIQQGETPGLDD [ZNF143] | -0.143 | 0.313 | 0.385 | 0.819 |
| MAAVLESLLREEVSVAAVVRWIARSTQGSEDNAGEAAALSSLRALRKEFVPFLLNFLREQSSRVLPQGPPTPAKTPGASAALPGRPGGPPRGSRGARSQLFPPTEAQSTAAEAPLARRGGRRRGPGPARERGGRGLEEGVSGESLPGAGGRRLRGSGSPSRPSLTLSDPPNLSNLEEFPPVGSVPPGPTGTKPSRRINPTPVSEERSLSKPKTCFTSPPISCVPSSQPSALDTSPWGLGLPPGCRSLQEEREMLRKERSKQLQQSPTPTCPTPELGSPLPSRTGSLTDEPADPARVSSRQRLELVALVYSSCIAENLVPNLFLELFFVFQLLTARRMVTAKDSDPELSPAVLDSLESPLFQSIHDCVFFAVQVLECHFQVLSNLDKGTLKLLAENERLLCFSPALQGRLRAAYEGSVAKVSLVMPPSTQAVSFQPETDNRANFSSDRAFHTFKKQRDVFYEVLREWEDHHEEPGWDFEKGLGSRIRAMMGQLSAACSHSHFVRLFQKQLLQMCQSPGGAGGTVLGEAPDVLSMLGADKLGRLWRLQERLMAPQSSGGPCPPPTFPGCQGFFRDFILSASSFQFNQHLMDSLSLKIQELNGLALPQHEPNDEDGESDVDWQGERKQFAVVLLSLRLLAKFLGFVAFLPYRGPEPPPTGELQDSILALRSQVPPVLDVRTLLQRGLQARRAVLTVPWLVEFLSFADHVVPLLEYYRDIFTLLLRLHRSLVLSQESEGKMCFLNKLLLLAVLGWLFQIPTVPEDLFFLEEGPSYAFEVDTVAPEHGLDNAPVVDQQLLYTCCPYIGELRKLLASWVSGSSGRSGGFMRKITPTTTTSLGAQPSQTSQGLQAQLAQAFFHNQPPSLRRTVEFVAERIGSNCVKHIKATLVADLVRQAESLLQEQLVTQGEEGGDPAQLLEILCSQLCPHGAQALALGREFCQRKSPGAVRALLPEETPAAVLSSAENIAVGLATEKACAWLSANITALIRREVKAAVSRTLRAQGPEPAARGERRGCSRACEHHAPLPSHLISEIKDVLSLAVGPRDPDEGVSPEHLEQLLGQLGQTLRCRQFLCPPAEQHLAKCSVELASLLVADQIPILGPPAQYRLERGQARRLLHMLLSLWKEDFQGPVPLQLLLSPRNVGLLADTRPREWDLLLFLLRELVEKGLMGRMEIEACLGSLHQAQWPGDFAEELATLSNLFLAEPHLPEPQLRACELVQPNRGTVLAQS [CDAN1] | 0.0358 | 0.117 | 0.128 | -0.765 |
| MFSD12 | -0.246 | -0.237 | 0.154 | 0.3 |
| MPDIIWVFPPQAEAEEDCHSDTVRADDDEENESPAETDLQAQLQMFRAQWMFELAPGVSSSNLENRPCRAARGSLQKTSADTKGKQEQAKEEKARELFLKAVEEEQNGALYEAIKFYRRAMQLVPDIEFKITYTRSPDGDGVGNSYIEDNDDDSKMADLLSYFQQQLTFQESVLKLCQPELESSQIHISVLPMEVLMYIFRWVVSSDLDLRSLEQLSLVCRGFYICARDPEIWRLACLKVWGRSCIKLVPYTSWREMFLERPRVRFDGVYISKTTYIRQGEQSLDGFYRAWHQVEYYRYIRFFPDGHVMMLTTPEEPQSIVPRLRTRNTRTDAILLGHYRLSQDTDNQTKVFAVITKKKEEKPLDYKYRYFRRVPVQEADQSFHVGLQLCSSGHQRFNKLIWIHHSCHITYKSTGETAVSAFEIDKMYTPLFFARVRSYTAFSERPL [FBXO9] | -0.365 | 0.156 | 0.568 | 0.333 |
| MKCEHCTRKECSKKTKTDDQENVSADAPSPAQENGEKGEFHKLADAKIFLSDCLACDSCMTAEEGVQLSQQNAKDFFRVLNLNKKCDTSKHKVLVVSVCPQSLPYFAAKFNLSVTDASRRLCGFLKSLGVHYVFDTTIAADFSILESQKEFVRRYRQHSEEERTLPMLTSACPGWVRYAERVLGRPITAHLCTAKSPQQVMGSLVKDYFARQQNLSPEKIFHVIVAPCYDKKLEALQESLPPALHGSRGADCVLTSGEIAQIMEQGDLSVRDAAVDTLFGDLKEDKVTRHDGASSDGHLAHIFRHAAKELFNEDVEEVTYRALRNKDFQEVTLEKNGEVVLRFAAAYGFRNIQNMILKLKKGKFPFHFVEVLACAGGCLNGRGQAQTPDGHADKALLRQMEGIYADIPVRRPESSAHVQELYQEWLEGINSPKAREVLHTTYQSQERGTHSLDIKW [NARF] | 0.474 | -0.273 | -0.279 | -0.0946 |
| MGDKGTRVFKKASPNGKLTVYLGKRDFVDHIDLVDPVDGVVLVDPEYLKERRVYVTLTCAFRYGREDLDVLGLTFRKDLFVANVQSFPPAPEDKKPLTRLQERLIKKLGEHAYPFTFEIPPNLPCSVTLQPGPEDTGKACGVDYEVKAFCAENLEEKIHKRNSVRLVIRKVQYAPERPGPQPTAETTRQFLMSDKPLHLEASLDKEIYYHGEPISVNVHVTNNTNKTVKKIKISVRQYADICLFNTAQYKCPVAMEEADDTVAPSSTFCKVYTLTPFLANNREKRGLALDGKLKHEDTNLASSTLLREGANREILGIIVSYKVKVKLVVSRGGLLGDLASSDVAVELPFTLMHPKPKEEPPHREVPENETPVDTNLIELDTNDDDIVFEDFARQRLKGMKDDKEEEEDGTGSPQLNNR [ARRB1] | 0.139 | -0.0694 | -0.748 | -0.986 |
| MNPTETKAIPVSQQMEGPHLPNKKKHKKQAVKTEPEKKSQSTKLSVVHEKKSQEGKPKEHTEPKSLPKQASDTGSNDAHNKKAVSRSAEQQPSEKSTEPKTKPQDMISAGGESVAGITAISGKPGDKKKEKKSLTPAVPVESKPDKPSGKSGMDAALDDLIDTLGGPEETEEENTTYTGPEVSDPMSSTYIEELGKREVTIPPKYRELLAKKEGITGPPADSSKPIGPDDAIDALSSDFTCGSPTAAGKKTEKEESTEVLKAQSAGTVRSAAPPQEKKRKVEKDTMSDQALEALSASLGTRQAEPELDLRSIKEVDEAKAKEEKLEKCGEDDETIPSEYRLKPATDKDGKPLLPEPEEKPKPRSESELIDELSEDFDRSECKEKPSKPTEKTEESKAAAPAPVSEAVCRTSMCSIQSAPPEPATLKGTVPDDAVEALADSLGKKEADPEDGKPVMDKVKEKAKEEDREKLGEKEETIPPDYRLEEVKDKDGKPLLPKESKEQLPPMSEDFLLDALSEDFSGPQNASSLKFEDAKLAAAISEVVSQTPASTTQAGAPPRDTSQSDKDLDDALDKLSDSLGQRQPDPDENKPMEDKVKEKAKAEHRDKLGERDDTIPPEYRHLLDDNGQDKPVKPPTKKSEDSKKPADDQDPIDALSGDLDSCPSTTETSQNTAKDKCKKAASSSKAPKNGGKAKDSAKTTEETSKPKDD [CAST] | 0.36 | 0.0186 | -1.5 | -2.61 |
| MGKMAAAVGSVATLATEPGEDAFRKLFRFYRQSRPGTADLEGVIDFSAAHAARGKGPGAQKVIKSQLNVSSVSEQNAYRAGLQPVSKWQAYGLKGYPGFIFIPNPFLPGYQWHWVKQCLKLYSQKPNVCNLDKHMSKEETQDLWEQSKEFLRYKEATKRRPRSLLEKLRWVTVGYHYNWDSKKYSADHYTPFPSDLGFLSEQVAAACGFEDFRAEAGILNYYRLDSTLGIHVDRSELDHSKPLLSFSFGQSAIFLLGGLQRDEAPTAMFMHSGDIMIMSGFSRLLNHAVPRVLPNPEGEGLPHCLEAPLPAVLPRDSMVEPCSMEDWQVCASYLKTARVNMTVRQVLATDQNFPLEPIEDEKRDISTEGFCHLDDQNSEVKRARINPDS [ALKBH1] | 0.0175 | -0.0399 | -0.273 | 0.558 |
| MEQAPPDPERQLQPAPLEPLGSPDAGLGAAVGKEAEGAGEESSGVDTMTHNNFWLKKIEISVSEAEKRTGRNAMNMQETYTAYLIETRSVEHTDGQSVLTDSLWRRYSEFELLRSYLLVYYPHIVVPPLPEKRAEFVWHKLSADNMDPDFVERRRIGLENFLLRIASHPILCRDKIFYLFLTQEGNWKETVNETGFQLKADSRLKALNATFRVKNPDKRFTDLKHYSDELQSVISHLLRVRARVADRLYGVYKVHGNYGRVFSEWSAIEKEMGDGLQSAGHHMDVYASSIDDILEDEEHYADQLKEYLFYAEALRAVCRKHELMQYDLEMAAQDLASKKQQCEELVTGTVRTFSLKGMTTKLFGQETPEQREARIKVLEEQINEGEQQLKSKNLEGREFVKNAWADIERFKEQKNRDLKEALISYAVMQISMCKKGIQVWTNAKECFSKM [SNX4] | 0.0889 | -0.0064 | 0.919 | 0.324 |
| PIKFYVE | -0.0952 | -0.153 | 0.473 | 0.726 |
| MGAVLGVFSLASWVPCLCSGASCLLCSCCPNSKNSTVTRLIYAFILLLSTVVSYIMQRKEMETYLKKIPGFCEGGFKIHEADINADKDCDVLVGYKAVYRISFAMAIFFFVFSLLMFKVKTSKDLRAAVHNGFWFFKIAALIGIMVGSFYIPGGYFSSVWFVVGMIGAALFILIQLVLLVDFAHSWNESWVNRMEEGNPRLWYAALLSFTSAFYILSIICVGLLYTYYTKPDGCTENKFFISINLILCVVASIISIHPKIQEHQPRSGLLQSSLITLYTMYLTWSAMSNEPDRSCNPNLMSFITRITAPTLAPGNSTAVVPTPTPPSKSGSLLDSDNFIGLFVFVLCLLYSSIRTSTNSQVDKLTLSGSDSVILGDTTTSGASDEEDGQPRRAVDNEKEGVQYSYSLFHLMLCLASLYIMMTLTSWYSPDAKFQSMTSKWPAVWVKISSSWVCLLLYVWTLVAPLVLTSRDFS [SERINC3] | -0.0916 | 0.0994 | -2.7 | -4.19 |
| MSAKDERAREILRGFKLNWMNLRDAETGKILWQGTEDLSVPGVEHEARVPKKILKCKAVSRELNFSSTEQMEKFRLEQKVYFKGQCLEEWFFEFGFVIPNSTNTWQSLIEAAPESQMMPASVLTGNVIIETKFFDDDLLVSTSRVRLFYV [PDE6D] | 0.207 | -0.258 | 0.113 | -0.864 |
